Results as given in patent US7306904.

Molecular target: soluble PDGF-alpha receptor (UniProt P16234)
Experiment: proximity ligation competition assay in solution: 100 nM PDGF-AA added to 6.4 pM PDGF-BB, 2.5 nM soluble PDGF-alpha receptor and 5 pM aptamer probes; the signal comes from PDGF-BB displaced from the receptor, compared with no PDGF-AA

Chain of UniProt P16234 (P16234 24-524 limits assumed): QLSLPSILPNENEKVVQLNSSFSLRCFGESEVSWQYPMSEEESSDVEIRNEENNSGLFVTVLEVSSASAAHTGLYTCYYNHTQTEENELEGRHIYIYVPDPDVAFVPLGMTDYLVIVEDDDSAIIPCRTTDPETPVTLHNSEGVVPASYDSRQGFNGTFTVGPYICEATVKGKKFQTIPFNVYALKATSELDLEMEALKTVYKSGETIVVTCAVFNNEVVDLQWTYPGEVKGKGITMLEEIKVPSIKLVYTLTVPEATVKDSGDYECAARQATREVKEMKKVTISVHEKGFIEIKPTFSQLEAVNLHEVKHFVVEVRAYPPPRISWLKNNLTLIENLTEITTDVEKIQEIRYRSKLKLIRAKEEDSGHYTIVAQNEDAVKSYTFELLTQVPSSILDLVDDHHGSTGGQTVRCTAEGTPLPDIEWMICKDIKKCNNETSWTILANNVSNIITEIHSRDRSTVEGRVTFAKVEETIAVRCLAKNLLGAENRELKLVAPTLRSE

PDGF-AA (from UniProt P04085 87-211) (ligand)
fold increase in signal: 3 fold
